In experiment [1] the target is GST-LdPEX3Δ1-42 (L. donovani PEX3 without the N-terminal predicted transmembrane domain, GST-tagged) (Leishmania donovani). Nature of the experiment: AlphaScreen or HTRF.
The target of experiment [2] is T1, GST-LdPEX3Δ1-42 (L. donovani PEX3 without the N-terminal predicted transmembrane domain, GST-tagged) (Leishmania donovani, UniProt A0A3Q8IW98 43-526).
T1 sequence: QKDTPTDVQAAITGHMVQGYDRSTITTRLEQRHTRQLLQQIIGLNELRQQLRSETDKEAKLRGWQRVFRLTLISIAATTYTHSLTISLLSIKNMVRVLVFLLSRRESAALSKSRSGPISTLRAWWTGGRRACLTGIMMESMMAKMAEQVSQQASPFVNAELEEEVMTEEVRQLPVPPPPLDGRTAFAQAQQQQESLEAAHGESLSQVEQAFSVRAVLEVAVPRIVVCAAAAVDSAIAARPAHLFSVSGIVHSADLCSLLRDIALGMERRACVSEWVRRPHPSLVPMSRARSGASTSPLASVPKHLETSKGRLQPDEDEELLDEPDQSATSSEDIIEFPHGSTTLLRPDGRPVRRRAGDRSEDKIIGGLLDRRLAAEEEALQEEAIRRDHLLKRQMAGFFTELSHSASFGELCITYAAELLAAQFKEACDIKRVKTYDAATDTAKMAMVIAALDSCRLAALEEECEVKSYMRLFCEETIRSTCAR
Nature of the experiment: ELISA.

The target of experiment [3] is T1, GST-LdPEX3Δ1-42 (L. donovani PEX3 …). The experiment is described as follows: AlphaScreen or HTRF.

Several values for one entry are separate records, joined by “and”; a condition that tells them apart may be missing. Equal entries are not always repeated.

For the molecule “Tag-free LdPEX19 (from LdPEX19-T-His6 by thrombin cleavage) (natural protein)”, the Kd in experiment [1] is 11.9 nM.

B1: LdPEX19-His6 (C-terminally His6-tagged full-length L. donovani PEX19, pET21b) (natural protein)
chain: MSDDDLDALLDEAMDMVDEQERKHEEEVRVRDAKLEDDLQKALDEASGTAGGDADMMKMLMSMLGGDSADDASLDSFKKSVMTMVSSLEGEENLGEEDKANLLRVKELMRVMEEEDIDKANDLLEQMKQEGKLPDCNNVGDAEIDEASRRCMEMLQQLSSATQVGHLDPAATPGAASSSSAAPPAAPAGDGAEIPSEVGRATEAMASALISTLADPQFVEPIKLMRDSYGPYMDAHGSELSHEDCERYERQRAKAQEICDLLQNPISGAEDPRLIQLLELMNKYSELGDPPRNLVKYAPKNRKGVEECQ
Turning to B1, the equilibrium dissociation constant (Kd) in experiment [2] was 10.6 nM and 10.5 nM; in experiment [3] it was 10.4 ± 2.57 nM.

Source of the values: paper doi:10.1101/2024.09.13.612636 (bioRxiv, 2024).
